Experimental findings from patent US20190359687A1 (Bayer, published 2019) are described below.

In assay [1] the target is T1, Cynomolgus monkey glycophorin A on Cynomolgus monkey red blood cells (Cynomolgus monkey).
T1 construct: whole, on cells; also called Cyno GPA; Cyno RBC
The experiment in a line: partition to Cyno RBC, human HemA plasma, 30 min.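 Further: FVIII fusion spiked at 1 IU/mL into RBC suspension at whole-blood density.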
Procedure: (§1) To evaluate partition to cynomolgus monkey or human red blood cells, whole blood was draw from Cynomolgus monkey or normal human volunteers in to anticoagulant with 4% sodium citrate (Sigma, St Louis, Mo.). The red blood cells were purified by layering the whole blood on to ficoll followed by low speed centrifugation. The supernatant containing plasma, platelets and white blood cells was discarded and the red blood cell pellet was resuspended in 10 pellet volumes of PBS (50 mM Phosphate buffer, pH7.4, 150 mM NaCl). The red blood cells were then pelleted by slow speed centrifugation and the red blood cells re-suspended in 10 volumes of PBS. This washing step was repeated 4 more times and the red blood cells finally resuspended in a volume of plasma from Hemophilia patients with less than 1% of normal levels of FVIII (GeorgeKing Bio-Medical, Overland Park, Kans.) to generate a total volume equal to the initial blood volume such that the RBC density was equal to that of normal whole blood. BDD and RBC targeted FVIII molecules were then spiked into RBC suspension in HemA plasma at 1 IU/mL, and incubated at room temperature for 2-3 hours with gentle rotation. […] An additional control was performed in which BDD or RBC targeted FVIII molecules were added at 11U/ml into the same human hemophilia A plasma and incubated for 5 minutes and 180 mins. These samples were used to determine the input FVIII activity in the presence of plasma which was used to calculate the percentage of the molecule that was bound to RBC. All plasma samples were then assayed together for FVIII activity using the Coatest SP assay (DiaPharma, Columbus, Ohio). The assay was performed following the manufacturer's instructions in a 96-well plate format. […] The plate was incubated at 37° C. for 10 minutes with shaking between each reagent addition.

Assay [2] concerns the target T2, human glycophorin A on human red blood cells (human, UniProt P02724 20-150).
T2 construct: whole, on cells; also called human GPA; huGPA
T2 sequence (looked up): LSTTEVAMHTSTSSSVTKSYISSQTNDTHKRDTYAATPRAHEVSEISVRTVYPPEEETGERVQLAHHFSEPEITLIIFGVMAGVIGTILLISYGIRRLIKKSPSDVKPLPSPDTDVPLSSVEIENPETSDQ
The experiment in a line: partition to human RBC, human HemA plasma, 120 min.
Procedure: (§2) The supernatant containing plasma, platelets and white blood cells was discarded and the red blood cell pellet was resuspended in 10 pellet volumes of PBS (50 mM Phosphate buffer, pH7.4, 150 mM NaCl). The red blood cells were then pelleted by slow speed centrifugation and the red blood cells re-suspended in 10 volumes of PBS. This washing step was repeated 4 more times and the red blood cells finally resuspended in a volume of plasma from Hemophilia patients with less than 1% of normal levels of FVIII (GeorgeKing Bio-Medical, Overland Park, Kans.) to generate a total volume equal to the initial blood volume such that the RBC density was equal to that of normal whole blood. BDD and RBC targeted FVIII molecules were then spiked into RBC suspension in HemA plasma at 1 IU/mL, and incubated at room temperature for 2-3 hours with gentle rotation. […] An additional control was performed in which BDD or RBC targeted FVIII molecules were added at 11U/ml into the same human hemophilia A plasma and incubated for 5 minutes and 180 mins. These samples were used to determine the input FVIII activity in the presence of plasma which was used to calculate the percentage of the molecule that was bound to RBC. All plasma samples were then assayed together for FVIII activity using the Coatest SP assay (DiaPharma, Columbus, Ohio). The assay was performed following the manufacturer's instructions in a 96-well plate format. […] The plate was incubated at 37° C. for 10 minutes with shaking between each reagent addition. […] The amount of FVIII activity in the plasma reflects the amount of unbound FVIII. The FVIII activity of the same molecule spiked in to Hemophilia A plasma alone (no RBC) and incubated for 5 minutes was normalized to 100%.

Assay [3] addresses T2, human glycophorin A on human red blood …. The experiment in a line: partition to human RBC, human HemA plasma, 120 min. The source holds these as a separate data set.
Procedure: as §2
The target is the same in assay [4]. The experiment in a line: partition to human RBC, human HemA plasma, 1 min.
Procedure: as §2
Assay [5] shares this target. The experiment in a line: partition to human RBC, human HemA plasma, 15 min.
Procedure: as §2
Assay [6] shares this target. The experiment in a line: partition to human RBC, human HemA plasma, 30 min.
Procedure: as §2
The target is the same in assay [7]. The experiment in a line: partition to human RBC, human HemA plasma, 60 min.
The target of assay [8] is T1, Cynomolgus monkey glycophorin A on …. The experiment in a line: partition to Cyno RBC, human HemA plasma, 120 min.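 Further: FVIII fusion spiked at 1 IU/mL into RBC suspension at whole-blood density.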
Procedure: as §1
Assay [9] has the same target. The experiment in a line: partition to Cyno RBC, human HemA plasma, 1 min.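 Further: FVIII fusion spiked at 1 IU/mL into RBC suspension at whole-blood density.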
The target is the same in assay [10]. The experiment in a line: partition to Cyno RBC, human HemA plasma, 15 min.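 Further: FVIII fusion spiked at 1 IU/mL into RBC suspension at whole-blood density.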
The target in assay [11] is T2, human glycophorin A on human red blood …. The experiment in a line: partition to human RBC, human HemA plasma, 5 min.
Assay [12] addresses T1, Cynomolgus monkey glycophorin A on …. The experiment in a line: partition to Cyno RBC, human HemA plasma, 5 min.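 Further: FVIII fusion spiked at 1 IU/mL into RBC suspension at whole-blood density.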
Procedure: as §1
Assay [13] shares this target. The experiment in a line: partition to Cyno RBC, human HemA plasma, 60 min.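 Further: FVIII fusion spiked at 1 IU/mL into RBC suspension at whole-blood density.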

B1: TPP-9976 FVIII-scFv fusion protein (other)
chain: ATRRYYLGAVELSWDYMQSDLGELPVDARFPPRVPKSFPFNTSVVYKKTLFVEFTDHLFNIAKPRPPWMGLLGPTIQAEVYDTVVITLKNMASHPVSLHAVGVSYWKASEGAEYDDQTSQREKEDDKVFPGGSHTYVWQVLKENGPMASDPLCLTYSYLSHVDLVKDLNSGLIGALLVCREGSLAKEKTQTLHKFILLFAVFDEGKSWHSETKNSLMQDRDAASARAWPKMHTVNGYVNRSLPGLIGCHRKSVYWHVIGMGTTPEVHSIFLEGHTFLVRNHRQASLEISPITFLTAQTLLMDLGQFLLFCHISSHQHDGMEAYVKVDSCPEEPQLRMKNNEEAEDYDDDLTDSEMDVVRFDDDNSPSFIQIRSVAKKHPKTWVHYIAAEEEDWDYAPLVLAPDDRSYKSQYLNNGPQRIGRKYKKVRFMAYTDETFKTREAIQHESGILGPLLYGEVGDTLLIIFKNQASRPYNIYPHGITDVRPLYSRRLPKGVKHLKDFPILPGEIFKYKWTVTVEDGPTKSDPRCLTRYYSSFVNMERDLASGLIGPLLICYKESVDQRGNQIMSDKRNVILFSVFDENRSWYLTENIQRFLPNPAGVQLEDPEFQASNIMHSINGYVFDSLQLSVCLHEVAYWYILSIGAQTDFLSVFFSGYTFKHKMVYEDTLTLFPFSGETVFMSMENPGLWILGCHNSDFRNRGMTALLKVSSCDKNTGDYYEDSYEDISAYLLSKNNAIEPRSFSQNGGGGSTGGTGGSSGGGTGSGGGGTGGSGGTDIQLTQSPSFLSASVGDRVTITCRASSSVRYIYWFQQKPGKAPKLLIYATSFRQSGVPSRFSGSGSGTEYTLTISSLQPEDFATYYCHQRNSFPYTFGQGTKLEIKGGGGSGGGGSGGGGSGGGGSEVQLVQSGAEVKKPGASVKVSCKASGYTFTTYAIHWVRQAPGQGLEWMGYINPSSGYTRYNPKFKGRVTMTRDKSTSTAYMELRSLRSDDTAVYYCWTGTRDYWGQGTTVTVSSGGGGDIQLTQSPSFLSASVGDRVTITCRASSSVRYIYWFQQKPGKAPKLLIYATSFRQSGVPSRFSGSGSGTEYTLTISSLQPEDFATYYCHQRNSFPYTFGQGTKLEIKGGGGSGGGGSGGGGSGGGGSEVQLVQSGAEVKKPGASVKVSCKASGYTFTTYAIHWVRQAPGQGLEWMGYINPSSGYTRYNPKFKGRVTMTRDKSTSTAYMELRSLRSDDTAVYYCWTGTRDYWGQGTTVTVSSGGGGDENQSPRSFQKKTRHYFIAAVERLWDYGMSSSPHVLRNRAQSGSVPQFKKVVFQEFTDGSFTQPLYRGELNEHLGLLGPYIRAEVEDNIMVTFRNQASRPYSFYSSLISYEEDQRQGAEPRKNFVKPNETKTYFWKVQHHMAPTKDEFDCKAWAYFSDVDLEKDVHSGLIGPLLVCHTNTLNPAHGRQVTVQEFALFFTIFDETKSWYFTENMERNCRAPCNIQMEDPTFKENYRFHAINGYIMDTLPGLVMAQDQRIRWYLLSMGSNENIHSIHFSGHVFTVRKKEEYKMALYNLYPGVFETVEMLPSKAGIWRVECLIGEHLHAGMSTLFLVYSNKCQTPLGMASGHIRDFQITASGQYGQWAPKLARLHYSGSINAWSTKEPFSWIKVDLLAPMIIHGIKTQGARQKFSSLYISQFIIMYSLDGKKWQTYRGNSTGTLMVFFGNVDSSGIKHNIFNPPIIARYIRLHPTHYSIRSTLRMELMGCDLNSCSMPLGMESKAISDAQITASSYFTNMFATWSPSKARLHLQGRSNAWRPQVNNPKEWLQVDFQKTMKVTGVTTQGVKSLLTSMYVKEFLISSSQDGHQWTLFFQNGKVKVFQGNQDSFTPVVNSLDPPLLTRYLRIHPQSWVHQIALRMEVLGCEAQDLY
notes: also called PPB 7998
In the case of B1, the “% bound to Cyno RBC” value in assay [1] was found to be 78.1%; in [8], 86.8%; in [9] it was 53.4%; in [10], 75.6%; in assay [12], 65.7%; in assay [13] it was 84.5%. For the same molecule, the “percentage bound to human RBC” value in assay [2] came out at 95.2%; in assay [3], 95.2%; in assay [4], 55.2%; in assay [5], 86.6%; in assay [6], 90.4%; in assay [7], 93.5%. The “percentage bound to human RBC” value in [11] worked out at 74.3%.
